Here are results for four molecules from patent publication US20130273029A1 (Novartis, published 2013).

Substitutions are numbered along the chain they refer to. Read-outs that look alike come from different tables or passages of the source.

Experiment [1] has as its target T1, Human HER3, endogenous, on human cancer cell lines (SK-Br-3, MCF7, BT-474) (human, UniProt P21860 20-1342). The experiment in a line: cell-based or functional assay.
In experiment [2] the target is T2, Rat HER3: CD33-[Rat HER3, residues 20-643]-TAG (rat, UniProt Q62799 20-643).
T2 construct: also called ra HER3-Tag; not shown: C-terminal TAG (e.g., FLAG TAG)
Nature of the experiment: SET, IgG vs soluble HER3-Tag. The essentials:
(§1)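 Affinity measured by solution equilibrium titration, with read-out moved from classical ELISA to ECL-based detection for sensitivity. Titration data were fitted with customized fitting models.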

Experiment [3] has as its target T3, Hu HER3: CD33-[Human HER3, residues 20-640]-TAG (human, UniProt P21860 20-640).
T3 construct: also called hu HER3-Tag; HER3-Tag; not shown: C-terminal TAG (e.g., FLAG TAG)
The experiment in a line: SET, IgG vs soluble HER3-Tag. The method in brief: as §1

The target in experiment [4] is T4, Mu HER3: CD33-[Murine HER3, residues 20-643]-TAG (murine, UniProt Q61526 20-643).
T4 construct: also called mu HER3-Tag; not shown: C-terminal TAG (e.g., FLAG TAG)
Nature of the experiment: SET, IgG vs soluble HER3-Tag. The method in brief:
as §1

Experiment [5] addresses T5, Cyno HER3: CD33-[Cyno HER3, residues 20-643]-TAG (cynomolgus, UniProt G7PIG5 20-643).
T5 construct: also called cy HER3-Tag; not shown: C-terminal TAG (e.g., FLAG TAG)
Nature of the experiment: SET, IgG vs soluble HER3-Tag. The method in brief: as §1

The target of experiment [6] is T1, Human HER3, endogenous, on human cancer …. The experiment in a line: cell-based or functional assay. This is another data set of the same source.
Experiment [7] shares this target. The experiment in a line: cell-based or functional assay. This is another data set of the same source.
The target in experiment [8] is T6, HER3 D3-4: CD33-[Human HER3, residues 330-643]-TAG (human, UniProt P21860 330-643).
T6 construct: also called D3-4-Tag; isolated domains 3-4; not shown: C-terminal TAG (e.g., FLAG TAG)
The experiment in a line: ELISA on coated recombinant protein, antibody titrated (Example 7); readout on the sheet is Fluorescence Units.

Experiment [9] addresses T7, HER3 D4: CD33-[Human HER3, residues 496-643]-TAG (human, UniProt P21860 496-643).
T7 construct: also called D4-Tag; isolated domain 4; not shown: C-terminal TAG (e.g., FLAG TAG)
The description is as above.

Experiment [10] has as its target T8, HER3 D2: CD33-[Human HER3, residues 185-329]-TAG (human, UniProt P21860 185-329).
T8 construct: also called D2-Tag; isolated D2 protein; not shown: C-terminal TAG (e.g., FLAG TAG)
The description is as above.

The target in experiment [11] is T3, Hu HER3: CD33-[Human HER3, residues …. Nature of the experiment: binding ELISA on human HER3 (WT), IgG titrated (Example 7); fluorescence 435/530 nm. In general terms: ELISA stands for enzyme-linked immunosorbent assay.
Experiment [12] concerns the target T1, Human HER3, endogenous, on human cancer …. The experiment in a line: FACS titration on SK-Br-3 cells. As for the experimental part:
The binding of antibodies to endogenous human antigen expressed on human cancer cells was accessed by FACS. In order to determine antibody EC₅₀ values SK-Br-3 cells were harvested with accutase and diluted to 1×10⁶ cells/mL in FACS buffer (PBS/3% FBS/0.2% NaN₃). 1×10⁵ cells/well were added to each well of a 96-well plate (Nunc) and centrifuged at 210 g for 5 minutes at 4° C. before removing the supernatant. Serial dilutions of test antibodies (diluted in 1:4 dilution steps with FACS buffer) were added to the pelleted cells and incubated for 1 hour on ice. The cells were washed and pelleted three times with 100 μL FACS buffer. PE conjugated goat anti-human IgG (Jackson ImmunoResearch) diluted 1/200 with FACS buffer were added to the cells and incubated on ice for 1 hour. Additional washing steps were performed three times with 100 μL FACS buffer followed by centrifugation steps at 210 g for 5 minutes at 4° C. Finally, cells were resuspended in 200 μL FACS buffer and fluorescence values were measured with a FACSArray (BD Biosciences). The amount of cell surface bound anti-HER3 antibody was assessed by measuring the mean channel fluorescence.
The ability of the identified antibodies to bind HER3 expressing cells was determined by calculating EC₅₀ values for their binding to the HER2 amplified cell line SK-Br-3 (see FIG. 2 and Table 4).

Another experiment has as its target T9, HER3 on JTC12 cells.
T9 construct: whole, on cells
The experiment in a line: FACS titration on JTC12 cells.

In the next experiment the target is T10, HER3 on B16-F10 cells (UniProt Q61526 20-1339).
T10 construct: whole, on cells
The experiment in a line: FACS titration on B16-F10 cells.

Experiment [13] deals with T6, HER3 D3-4: CD33-[Human HER3, residues …. Nature of the experiment: ELISA on coated recombinant protein, antibody titrated (Example 7); readout on the sheet is Fluorescence Units. This is another data set of the same source.
In experiment [14] the target is T7, HER3 D4: CD33-[Human HER3, residues …. Described as above. The source holds these as a separate data set.
The target of experiment [15] is T8, HER3 D2: CD33-[Human HER3, residues …. The experiment is described as above. The source holds these as a separate data set.

T5 sequence (G7PIG5 entry or part of it): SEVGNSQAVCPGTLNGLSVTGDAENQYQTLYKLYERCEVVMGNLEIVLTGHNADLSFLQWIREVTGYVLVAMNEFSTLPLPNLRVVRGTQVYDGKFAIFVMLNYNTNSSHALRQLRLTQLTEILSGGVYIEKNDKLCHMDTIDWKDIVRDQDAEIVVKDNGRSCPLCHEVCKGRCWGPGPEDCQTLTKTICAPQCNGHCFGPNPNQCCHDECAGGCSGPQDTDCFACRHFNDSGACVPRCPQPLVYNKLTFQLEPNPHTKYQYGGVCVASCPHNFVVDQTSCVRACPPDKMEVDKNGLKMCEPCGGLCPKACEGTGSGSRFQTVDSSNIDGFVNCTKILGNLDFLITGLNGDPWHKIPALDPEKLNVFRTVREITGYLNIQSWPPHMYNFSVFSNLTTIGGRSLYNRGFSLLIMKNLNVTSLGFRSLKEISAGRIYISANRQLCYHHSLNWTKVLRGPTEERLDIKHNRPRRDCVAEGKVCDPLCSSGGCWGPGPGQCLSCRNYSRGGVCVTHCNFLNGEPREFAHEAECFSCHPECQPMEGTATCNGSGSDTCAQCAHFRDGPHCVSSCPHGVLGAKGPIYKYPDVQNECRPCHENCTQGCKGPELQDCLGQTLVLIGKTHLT
T1 sequence (P21860 20-1342): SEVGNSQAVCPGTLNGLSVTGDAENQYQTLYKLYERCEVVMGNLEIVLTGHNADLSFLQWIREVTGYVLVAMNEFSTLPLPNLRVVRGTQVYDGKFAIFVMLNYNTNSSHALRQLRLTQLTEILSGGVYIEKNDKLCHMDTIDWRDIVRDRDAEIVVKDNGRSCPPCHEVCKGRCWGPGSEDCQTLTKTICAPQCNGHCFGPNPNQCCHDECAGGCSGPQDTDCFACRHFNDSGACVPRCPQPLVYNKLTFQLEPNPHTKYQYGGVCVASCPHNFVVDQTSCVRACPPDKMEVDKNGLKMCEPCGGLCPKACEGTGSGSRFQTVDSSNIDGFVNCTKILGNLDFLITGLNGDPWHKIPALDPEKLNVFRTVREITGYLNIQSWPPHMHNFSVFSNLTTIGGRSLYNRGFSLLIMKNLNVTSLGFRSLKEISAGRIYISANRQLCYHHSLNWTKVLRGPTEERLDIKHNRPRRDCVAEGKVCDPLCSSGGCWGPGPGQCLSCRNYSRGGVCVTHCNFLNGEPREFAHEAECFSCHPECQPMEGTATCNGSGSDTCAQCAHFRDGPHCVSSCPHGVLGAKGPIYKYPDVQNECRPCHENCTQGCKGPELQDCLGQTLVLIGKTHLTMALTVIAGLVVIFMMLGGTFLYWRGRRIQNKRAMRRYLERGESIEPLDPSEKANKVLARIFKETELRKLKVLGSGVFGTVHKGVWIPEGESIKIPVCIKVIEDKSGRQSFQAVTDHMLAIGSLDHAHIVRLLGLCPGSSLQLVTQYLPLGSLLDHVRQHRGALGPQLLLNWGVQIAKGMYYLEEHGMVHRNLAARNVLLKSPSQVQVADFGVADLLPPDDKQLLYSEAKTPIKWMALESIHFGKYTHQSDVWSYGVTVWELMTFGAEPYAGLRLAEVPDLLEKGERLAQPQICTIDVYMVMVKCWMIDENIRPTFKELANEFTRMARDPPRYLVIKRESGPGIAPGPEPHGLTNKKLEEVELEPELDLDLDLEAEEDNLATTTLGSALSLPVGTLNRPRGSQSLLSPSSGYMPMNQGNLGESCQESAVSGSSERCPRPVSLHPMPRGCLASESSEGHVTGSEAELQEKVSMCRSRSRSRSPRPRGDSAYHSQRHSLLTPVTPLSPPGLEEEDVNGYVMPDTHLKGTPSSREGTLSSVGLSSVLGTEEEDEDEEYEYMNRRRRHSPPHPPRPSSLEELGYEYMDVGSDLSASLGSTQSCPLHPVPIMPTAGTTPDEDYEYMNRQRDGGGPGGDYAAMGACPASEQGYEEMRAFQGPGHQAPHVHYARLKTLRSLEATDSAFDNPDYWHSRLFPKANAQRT
T4 sequence (Q61526 20-643): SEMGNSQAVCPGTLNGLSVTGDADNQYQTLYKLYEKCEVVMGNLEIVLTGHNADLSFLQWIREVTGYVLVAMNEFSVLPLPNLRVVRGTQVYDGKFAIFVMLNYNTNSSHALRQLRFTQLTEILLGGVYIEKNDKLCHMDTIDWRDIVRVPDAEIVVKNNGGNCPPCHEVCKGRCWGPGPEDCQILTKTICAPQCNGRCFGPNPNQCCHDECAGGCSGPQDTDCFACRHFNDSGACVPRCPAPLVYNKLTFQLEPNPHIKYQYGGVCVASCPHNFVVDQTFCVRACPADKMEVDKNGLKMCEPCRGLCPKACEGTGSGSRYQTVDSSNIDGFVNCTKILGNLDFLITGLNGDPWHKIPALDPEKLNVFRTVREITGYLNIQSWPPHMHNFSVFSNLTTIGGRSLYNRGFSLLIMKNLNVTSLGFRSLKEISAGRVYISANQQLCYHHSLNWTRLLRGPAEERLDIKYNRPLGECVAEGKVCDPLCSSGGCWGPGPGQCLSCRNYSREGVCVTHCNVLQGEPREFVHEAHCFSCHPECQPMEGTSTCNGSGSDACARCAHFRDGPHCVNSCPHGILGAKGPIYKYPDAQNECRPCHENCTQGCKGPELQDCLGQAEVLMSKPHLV
T3 sequence (P21860 20-640): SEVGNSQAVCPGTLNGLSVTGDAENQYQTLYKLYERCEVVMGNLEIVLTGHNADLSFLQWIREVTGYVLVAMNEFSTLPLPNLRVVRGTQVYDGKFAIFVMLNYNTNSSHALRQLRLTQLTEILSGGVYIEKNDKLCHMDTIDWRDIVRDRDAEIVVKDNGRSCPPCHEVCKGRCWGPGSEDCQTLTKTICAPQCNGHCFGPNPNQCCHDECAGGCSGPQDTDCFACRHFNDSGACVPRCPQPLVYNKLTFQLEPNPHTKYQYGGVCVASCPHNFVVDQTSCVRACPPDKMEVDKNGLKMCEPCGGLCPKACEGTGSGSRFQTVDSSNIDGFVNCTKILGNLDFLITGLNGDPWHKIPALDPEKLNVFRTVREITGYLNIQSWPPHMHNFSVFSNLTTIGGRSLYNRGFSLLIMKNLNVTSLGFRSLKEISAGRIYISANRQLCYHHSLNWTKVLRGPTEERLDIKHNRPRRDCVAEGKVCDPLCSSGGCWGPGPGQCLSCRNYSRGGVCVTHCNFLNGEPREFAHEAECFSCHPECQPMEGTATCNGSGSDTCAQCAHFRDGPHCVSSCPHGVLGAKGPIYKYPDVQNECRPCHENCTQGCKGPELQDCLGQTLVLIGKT
T2 sequence (Q62799 20-643): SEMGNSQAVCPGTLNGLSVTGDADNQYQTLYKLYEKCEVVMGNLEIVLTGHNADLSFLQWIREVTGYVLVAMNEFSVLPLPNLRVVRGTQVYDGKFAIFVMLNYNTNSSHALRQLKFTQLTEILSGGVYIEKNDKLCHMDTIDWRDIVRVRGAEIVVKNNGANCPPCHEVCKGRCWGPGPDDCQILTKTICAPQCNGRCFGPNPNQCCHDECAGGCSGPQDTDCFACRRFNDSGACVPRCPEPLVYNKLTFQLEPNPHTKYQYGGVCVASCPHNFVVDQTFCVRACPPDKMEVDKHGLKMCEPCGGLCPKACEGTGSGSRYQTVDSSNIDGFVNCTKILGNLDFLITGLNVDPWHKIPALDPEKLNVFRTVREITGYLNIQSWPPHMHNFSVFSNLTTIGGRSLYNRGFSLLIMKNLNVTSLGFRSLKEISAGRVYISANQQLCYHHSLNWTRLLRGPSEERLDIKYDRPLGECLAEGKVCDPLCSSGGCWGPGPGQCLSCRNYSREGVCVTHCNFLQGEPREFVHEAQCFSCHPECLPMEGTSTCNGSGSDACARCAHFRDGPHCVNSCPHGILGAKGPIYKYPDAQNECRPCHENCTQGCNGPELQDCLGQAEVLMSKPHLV
T6 sequence (P21860 330-643): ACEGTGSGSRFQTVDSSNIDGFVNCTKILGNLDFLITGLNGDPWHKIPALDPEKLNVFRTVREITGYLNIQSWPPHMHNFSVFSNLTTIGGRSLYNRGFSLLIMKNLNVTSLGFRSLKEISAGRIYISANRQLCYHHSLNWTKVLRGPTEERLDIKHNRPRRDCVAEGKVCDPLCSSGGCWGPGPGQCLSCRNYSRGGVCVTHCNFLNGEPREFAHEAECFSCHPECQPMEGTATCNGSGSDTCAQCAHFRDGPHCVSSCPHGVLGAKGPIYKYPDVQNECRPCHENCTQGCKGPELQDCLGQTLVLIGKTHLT
T7 sequence (P21860 496-643): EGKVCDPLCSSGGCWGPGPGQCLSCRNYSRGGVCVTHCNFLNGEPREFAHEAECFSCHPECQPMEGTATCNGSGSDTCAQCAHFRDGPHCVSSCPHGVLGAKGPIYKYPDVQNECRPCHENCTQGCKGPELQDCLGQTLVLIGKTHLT
T8 sequence (P21860 185-329): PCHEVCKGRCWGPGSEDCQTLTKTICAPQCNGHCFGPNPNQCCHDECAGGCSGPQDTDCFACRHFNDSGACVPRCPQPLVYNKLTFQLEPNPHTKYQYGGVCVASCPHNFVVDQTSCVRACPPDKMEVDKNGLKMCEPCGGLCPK

B1: MOR12616 (antibody, human IgG1, kappa, V domains shown)
VH: QVQLVQSGAEVKKPGESLKISCKGSGYSFTNSWVAWVRQMPGKGLEWMGIIYPGNSDTIYSPSFQGQVTISADKSISTAYLQWSSLKASDTAMYYCARVHIIQPPSAWSYNAMDVWGQGTLVTVSS
VL: DIQMTQSPSSLSASVGDRVTITCRASQSISTYLNWYQQKPGKAPKLLIFGASNLQSGVPSRFSGSGSGTDFTLTISSLQPEDFATYYCQQSITELFTFGQGTKVEIKR
notes: tested as IgG
Usually Kd stands for a measure of binding affinity in units of concentration. A lower Kd goes with higher affinity. In general, EC50 (read off the curve) refers to the concentration that produces a half-maximal response. As for B1, in experiment [1], the “BT474 pHER3 % inhibition” value came to 58%, the “BT474 pHER3 IC50” value is 436 pM, the “MCF7 pHER3 % inhibition” value came out at 76% and the “MCF7 pHER3 IC50” value turned out to be 245 pM. Besides, in [1], the “SK-Br-3 pHER3 % inhibition” value came to 75% and the “SK-Br-3 pHER3 IC50” value was found to be 142 pM. Besides, in [2], the affinity, expressed as Kd, was 0.122 nM. The molecule also came in with a dissociation constant Kd in [3] of 0.02 nM. Moreover, the Kd in [4] turned out to be 0.041 nM. The molecule also showed an equilibrium dissociation constant (Kd) in [5] of 0.074 nM. Further, in [6], the “BT-474 pAkt (S473) % inhibition” value stood at 78%, the “BT-474 pAkt (S473) IC50” value came to 316 pM, the “MCF7 pAkt (S473) % inhibition” value was determined as 80% and the “MCF7 pAkt (S473) IC50” value came to 442 pM. Besides, in experiment [6], the “SK-Br-3 pAkt (S473) % inhibition” value was determined as 89% and the “SK-Br-3 pAkt (S473) IC50” value stood at 88 pM. Further, in experiment [7], the “BT-474 proliferation % inhibition” value amounted to 45%, the “BT-474 proliferation IC50” value worked out at 0.635 nM, the “MCF7 proliferation % inhibition” value came out at 32% and the “MCF7 proliferation IC50” value was determined as 0.415 nM. In experiment [7], the “SK-Br-3 proliferation % inhibition” value was 48% and the “SK-Br-3 proliferation IC50” value was found to be 0.123 nM. The binding result in experiment [8] was “no binding (tested: 10 µg/ml)”. Also, the binding result in [9] is listed as “no binding (tested: 10 µg/ml)”. Moreover, in experiment [10], the half-maximal effective concentration (EC50 (read off the curve)) was approximately 0.2 µg/mL. For the same molecule, the “EC50 (read off the curve)” value in [11] was approximately 0.1 nM.

B2: MOR14536 (antibody, human IgG1, kappa, V domains shown)
VH: B1 VH with Q1E, T30S, S32Y, V34I, N55Q
VL: B1 VL with F49Y
notes: tested as IgG
Broadly, the EC50 is the concentration needed to bring the measured effect to its halfway point. Higher therefore signals lower potency in that assay. As for B2, the EC50 in experiment [12] was determined as 1.27 nM; in the experiment with HER3 on JTC12 cells, 1.36 nM; with HER3 on B16-F10 cells, 0.625 nM. For the same molecule, in experiment [1], the “MCF7 pHER3 % inhibition” value came out at 83%. Besides, the “MCF7 pHER3 IC50” value in [1] was determined as 379 pM. Further, the “SK-Br-3 pHER3 % inhibition” value in experiment [1] was 76%. For the same molecule, in experiment [1], the “SK-Br-3 pHER3 IC50” value was 239 pM. The Kd was determined as 0.064 nM in experiment [2], 0.072 nM in experiment [3], 0.029 nM in experiment [4] and 0.044 nM in [5]. The “SK-Br-3 proliferation % inhibition” value in experiment [7] came to 56%. In [7], the “SK-Br-3 proliferation IC50” value stood at 0.181 nM.

B3: MOR12925 (antibody, human IgG1, kappa, V domains shown)
VH: B1 VH with T30S, S32Y, V34I
VL: B1 VL
notes: tested as IgG
With B3, in experiment [1], the “BT474 pHER3 % inhibition” value came out at 63%, the “BT474 pHER3 IC50” value amounted to 2160 pM, the “MCF7 pHER3 % inhibition” value amounted to 81% and the “MCF7 pHER3 IC50” value was found to be 327 pM. In [1], the “SK-Br-3 pHER3 % inhibition” value was determined as 75% and the “SK-Br-3 pHER3 IC50” value worked out at 136 pM. The same molecule returned a dissociation constant (Kd) in experiment [2] of 0.1 nM. Binding in experiment [3] was characterised by a dissociation constant (Kd) of 0.028 nM. Moreover, binding in experiment [4] was characterised by a dissociation constant (Kd) of 0.038 nM. In [5], this molecule returned a Kd of 0.074 nM. Moreover, the binding result in [13] was “no binding (tested: 10 µg/ml)”. Moreover, in experiment [14], the binding result is reported as “no binding (tested: 10 µg/ml)”. Further, the “EC50 (read off the curve)” value in experiment [15] is approximately 0.1 µg/mL. Moreover, in experiment [6], the “BT-474 pAkt (S473) % inhibition” value came out at 80%, the “BT-474 pAkt (S473) IC50” value was 255 pM, the “MCF7 pAkt (S473) % inhibition” value stood at 82% and the “MCF7 pAkt (S473) IC50” value is 295 pM. In experiment [6], the “SK-Br-3 pAkt (S473) % inhibition” value is 88% and the “SK-Br-3 pAkt (S473) IC50” value worked out at 93 pM. Also, in experiment [7], the “BT-474 proliferation % inhibition” value amounted to 47%, the “BT-474 proliferation IC50” value worked out at 0.522 nM, the “MCF7 proliferation % inhibition” value turned out to be 47% and the “MCF7 proliferation IC50” value is 0.604 nM. Also, in experiment [7], the “SK-Br-3 proliferation % inhibition” value turned out to be 40% and the “SK-Br-3 proliferation IC50” value is 0.101 nM. Besides, the “EC50 (read off the curve)” value in [11] is approximately 0.1 nM.

B4: MOR14535 (antibody, human IgG1, kappa, V domains shown)
VH: B1 VH with Q1E, N31T, S32T, N55L
VL: B1 VL with F49Y
notes: tested as IgG
As to B4, the EC50 is 2.08 nM in experiment [12], 65.1 nM with HER3 on JTC12 cells and 0.524 nM with HER3 on B16-F10 cells. In addition, the “MCF7 pHER3 % inhibition” value in [1] was determined as 73%. Also, the “MCF7 pHER3 IC50” value in experiment [1] amounted to 533 pM. In addition, the “SK-Br-3 pHER3 % inhibition” value in [1] was 76%. Also, in experiment [1], the “SK-Br-3 pHER3 IC50” value was found to be 231 pM. Besides, the Kd came to 0.315 nM in experiment [2], 0.235 nM in experiment [3], 0.125 nM in experiment [4] and 0.215 nM in [5]. In addition, in experiment [7], the “SK-Br-3 proliferation % inhibition” value was found to be 66%. Moreover, the “SK-Br-3 proliferation IC50” value in experiment [7] was 0.271 nM.
